Our source for the EC50 values is US20250092135A1 (NANJING LEADS BIOLABS, published 2025).

Assay [1] deals with T1, rhesus monkey MUC16 protein (ECT_TM RhMuc16) on 293T cells (rhesus monkey).
T1 chain: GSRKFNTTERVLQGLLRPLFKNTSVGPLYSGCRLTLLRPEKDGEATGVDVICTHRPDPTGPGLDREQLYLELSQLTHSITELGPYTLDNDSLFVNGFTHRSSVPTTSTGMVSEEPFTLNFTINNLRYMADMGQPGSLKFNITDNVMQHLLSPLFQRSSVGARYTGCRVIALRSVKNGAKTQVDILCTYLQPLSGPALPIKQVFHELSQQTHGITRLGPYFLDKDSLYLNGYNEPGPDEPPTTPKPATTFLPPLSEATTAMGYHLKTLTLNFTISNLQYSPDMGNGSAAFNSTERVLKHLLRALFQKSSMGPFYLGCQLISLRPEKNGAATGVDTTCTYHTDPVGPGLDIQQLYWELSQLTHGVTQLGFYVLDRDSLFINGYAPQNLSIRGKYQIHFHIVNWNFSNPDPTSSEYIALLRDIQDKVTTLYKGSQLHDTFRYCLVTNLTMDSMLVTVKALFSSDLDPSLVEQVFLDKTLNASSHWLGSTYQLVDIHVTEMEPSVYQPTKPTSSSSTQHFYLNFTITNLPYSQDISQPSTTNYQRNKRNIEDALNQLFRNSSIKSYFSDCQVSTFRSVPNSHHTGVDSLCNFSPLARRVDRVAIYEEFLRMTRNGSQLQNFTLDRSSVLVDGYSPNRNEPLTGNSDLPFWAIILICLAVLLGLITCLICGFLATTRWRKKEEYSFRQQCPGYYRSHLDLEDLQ
In words: flow cytometry, 293T/rhesus MUC16 cells as printed on the sheet and in the legend (the example, paragraph 611, speaks of cynomolgus MUC16), PE anti-human IgG Fc secondary, MFI; EC50 table under the plot, unit from the axis Conc.(nM); curve still rising at the top concentration of 100 nM. The method, then:
Referring to the flow cytometry described above, the serially diluted test bispecific antibody (at an initial concentration of 100 nM, 5-fold dilution, 9 points) was added to the cells, and the plate was incubated at 4° C. for 30 min. The cells were washed twice with PBS, and then fluorescent secondary antibody R-PE-conjugated AffiniPure Goat Anti-Human IgG, Fcγ Fragment Specific was added. The cells were incubated at 4° C. for 30 min. The cells were washed twice with PBS and then resuspended, and finally, fluorescence signals were detected using a BD Accuri C5 (BD Bioscience) flow cytometer.
Background: Flow cytometry measures light scatter and fluorescence of single cells or particles in a stream.

In assay [2] the target is T2, human MUC16 protein (ECT_TM huMuc16) on 293T cells (human).
T2 chain: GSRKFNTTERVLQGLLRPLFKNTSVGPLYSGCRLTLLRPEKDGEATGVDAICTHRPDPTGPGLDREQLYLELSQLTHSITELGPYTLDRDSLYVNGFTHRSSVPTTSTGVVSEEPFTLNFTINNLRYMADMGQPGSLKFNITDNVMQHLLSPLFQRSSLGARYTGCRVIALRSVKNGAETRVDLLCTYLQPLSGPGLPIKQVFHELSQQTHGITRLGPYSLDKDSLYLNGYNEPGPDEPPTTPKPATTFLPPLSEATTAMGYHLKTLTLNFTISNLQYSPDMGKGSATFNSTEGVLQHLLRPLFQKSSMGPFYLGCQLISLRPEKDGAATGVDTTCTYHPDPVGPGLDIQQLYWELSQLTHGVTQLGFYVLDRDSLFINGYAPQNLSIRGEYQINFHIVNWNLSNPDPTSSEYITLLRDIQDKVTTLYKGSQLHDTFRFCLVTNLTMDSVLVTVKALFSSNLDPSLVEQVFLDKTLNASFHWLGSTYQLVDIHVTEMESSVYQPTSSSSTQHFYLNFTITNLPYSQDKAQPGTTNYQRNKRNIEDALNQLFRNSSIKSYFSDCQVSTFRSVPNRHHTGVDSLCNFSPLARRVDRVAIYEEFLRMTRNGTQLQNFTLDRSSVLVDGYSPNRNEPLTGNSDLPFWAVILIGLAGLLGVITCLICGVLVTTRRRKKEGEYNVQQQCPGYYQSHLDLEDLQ
Briefly: cell binding on 293T/hMUC16 cells, read as MFI (the legend calls it ELISA); EC50 table under the plot, unit from the axis Conc.(nM).

Assay [3] concerns the target T3, human MUC16 protein endogenously expressed on cells (human, UniProt Q8WXI7 1-14507).
T3 construct: whole, on cells; also called MUC16 on OVCAR3 cells; MUC16 in ovarian carcinoma tissue
In words: flow cytometry, OVCAR3 cells (endogenous human MUC16), PE anti-human IgG Fc secondary, MFI; EC50 table under the plot, unit from the axis Conc.(nM). On the procedure:
(1) Whether the anti-CD3/anti-MUC16 bispecific antibodies in the present invention could bind to the MUC16 protein endogenously expressed on human ovarian carcinoma cells (OVCAR3) (Cell Bank of Type Culture Collection Committee of the Chinese Academy of Sciences, Cat #TCHu228) was determined by cell binding experiments.
The experiments were performed using flow cytometry. OVCAR3 cells were digested, centrifuged and collected. The cells were resuspended in a PBS solution, and seeded into a 96-well plate (Corning, Cat #3799) at 1×10⁵ cells/well. The 96-well plate was centrifuged and then the supernatant was discarded. 100 μL of the serially diluted test bispecific antibody (at a maximum concentration of 200 nM, 5-fold dilution from 100 nM, 9 concentration points in total) was added to the OVCAR3 cells. The plate was incubated at 4° C. for 30 min and centrifuged (1000 rpm, 5 min), and then the supernatant was discarded. 100 μL of PBS solution was added to each well, and the cells were washed twice. 100 μL of fluorescent secondary antibody R-PE-conjugated AffiniPure Goat Anti-Human IgG, Fcγ Fragment Specific (Jackson ImmunoResearch, Cat #109-116-098) diluted in a ratio of 1:200 was then added. The cells were incubated at 4° C. for 30 min. After the cells were washed twice with the PBS solution, 100 μL of PBS solution was added to each well to resuspend the cells, and finally, fluorescence signals were detected using a BD Accuri C5 (BD Bioscience) flow cytometer according to the manufacturer's instructions. REGN4018 was used as a positive control.

B1: humanized anti-MUC16 antibody Hu-L4H7 (antibody, human IgG1, kappa, L234A L235A, V domains shown)
VH: QVQLVQSGAEVKKPGASVKVSCKASGYTFTDYNIHWVRQAPGQGLEWMGYIYPYNGVSDYNQNFKSRVTMTTDTSTSTAYMELRSLRSDDTAVYYCARWDFGSGYYFDYWGQGTLVTVSS
VL: EIVLTQSPATLSLSPGERATLSCRASSSVIYMSWYQQKPGQAPRLLIYGTSTLASGIPARFSGSGSGTDFTLTISSLEPEDFAVYYCQQWSSNPFTFGQGTKLEIKR
notes: human IgG1 with L234A, L235A, D265A, P329A and kappa; Biotinylated in the CA125 ELISA; also called humanized MUC-16 antibody
In general, EC50 refers to the concentration needed to bring the measured effect to its halfway point. Regarding B1, the half-maximal effective concentration (EC50) in assay [1] was found to be 59.4 nM; in assay [2], 2.28 nM; in assay [3] it was 2.73 nM.

B2: anti-MUC16 antibody 776.1(C33S) (antibody, human IgG1, kappa, L234A L235A, V domains shown)
VH: EVQLQQSGPELVKPGASVKISCKASGYTFTDYNIHWVKQSHGKILEWIGYIYPYNGVSDYNQNFKSKATLIVDNSSNTAYMELRSLTSEDSAVYYCARWDFGSGYYFDYWGQGTTLTVSS
VL: QIVLSQSPAILFASPGETVTMTCRASSSVIYMSWNQQKPGSSPKPWIYGTSTLASGVPTRFSGSGSGTSYSLTISRVEAEDAATYYCQQWSSNPFTFGSGTKLEIKR
The molecule B2 returned a 50% effective concentration (EC50) in assay [2] of 6.67 nM.

B3: anti-CD3/MUC16 bispecific antibody MCH7-23L2-MCH7 (bispecific antibody, human IgG1, kappa, L234A L235A)
heavy 1: QVQLVQSGAEVKKPGASVKVSCKASGYTFTDYNIHWVRQAPGQGLEWMGYIYPYNGVSDYNQNFKSRVTMTTDTSTSTAYMELRSLRSDDTAVYYCARWDFGSGYYFDYWGQGTLVTVSSASTKGPSVFPLAPSSKSTSGGTAALGCLVKDYFPEPVTVSWNSGALTSGVHTFPAVLQSSGLYSLSSVVTVPSSSLGTQTYICNVNHKPSNTKVDKKVEPKSCEVQLVESGGGLVQPGGSLKLSCAASGFTFSTYAMNWVRQAPGKGLEWVGRIRSKYNNYATYYADSVKDRFTISRDDSKNTLYLQMNSLKTEDTAVYYCTRHGNFGNSYVSWFAYWGQGTTVTVSSGGGGSGGGGSGGGGSQAVVTQEPSLTVSPGGTVTLTCRSSTGAVTTSNYANWVQQKPGQAPRGLIGGTNKRAPGVPARFSGSLLGGKAALTLSGAQPEDEAEYFCALWYSNLWVFGGGTKLTVLGEPKSSDKTHTCPPCPAPEAAGGPSVFLFPPKPKDTLMISRTPEVTCVVVAVSHEDPEVKFNWYVDGVEVHNAKTKPREEQYNSTYRVVSVLTVLHQDWLNGKEYKCKVSNKALAAPIEKTISKAKGQPREPQVCTLPPSRDELTKNQVSLSCAVKGFYPSDIAVEWESNGQPENNYKTTPPVLDSDGSFFLVSKLTVDKSRWQQGNVFSCSVMHEALHNHYTQKSLSLSPGK
heavy 2: not shown
light: EIVLTQSPATLSLSPGERATLSCRASSSVIYMSWYQQKPGQAPRLLIYGTSTLASGIPARFSGSGSGTDFTLTISSLEPEDFAVYYCQQWSSNPFTFGQGTKLEIKRTVAAPSVFIFPPSDEQLKSGTASVVCLLNNFYPREAKVQWKVDNALQSGNSQESVTEQDSKDSTYSLSSTLTLSKADYEKHKVYACEVTHQGLSSPVTKSFNRGEC
notes: MCH7-23L2ScFv-Hole (VH-CH1-scFv-Fc) + MCH7-KIH-Knob + two light chains MCL4 LC
On to B3, for which the EC50 in assay [1] amounted to 52.2 nM; in assay [3], 4.21 nM.
